The source of these data is US20110314564A1, “ENZYMES AND METHODS FOR HYDROLYSING PHENYLUREAS, CARBAMATES AND ORGANOPHOSPHATES” (priority 2008, published 2011).

The subject of series [1] is Mycobacterium brisbanense strain JK1. The series is described as follows: Degradation of diuron and accumulation of DCA in liquid culture. Conditions: alternate nitrogen source present. It is filed as cell-based. The method, then: MM (50 mL) supplemented with 10 mM glucose, 0.13 mM diuron and 18.7 mM ammonium chloride (as required) were inoculated with 0.2% of a homogeneous suspension of freshly grown M. brisbanense strain JK1 cells (0D600=˜10). Cultures were incubated at 28° C. with shaking at 200 rpm, in the dark. Samples were taken at ˜24 hour intervals, and metabolites were extracted in 50% acetonitrile, filtered and analysed by HPLC.

The conditions of series [2]: neutral buffer; estimated from the work of Salvestrini et al. (2002); cited from earlier work.
A further series has as its target PuhB (Mycolicibacterium brisbanense, UniProt B8R4K0). The series is described as follows: Hydrolysis of phenylurea, carbamate and organophosphate substrates by purified PuhB (LCMS / FBBS / A400 assays). Conditions: PuhB.
Series [3] can be described thus: Activity of native PuhA and PuhB at each purification step (DCA formation). Format: biochemical. An excerpt:
(§1) Protein concentration was estimated using the Bio-rad protein assay (Bradford), with bovine serum albumin used as standard. Protein purity was monitored using sodium dodecyl sulphate-polyacrylamide gel electrophoresis (SDS-PAGE) stained with Coomassie brilliant blue. Where PuhA and B concentrations were estimated in semi purified extracts, SDS-PAGE gels were scanned using Labscan v5 (Amersham Biosciences) and band densitometry performed with Total lab TL100 (Nonlinear dynamics). Talon cobalt resin (BD Biosciences) was used for the purification of hexa-histidine tagged protein. Untagged protein was purified by ammonium sulfate (AS) precipitiation followed by hydrophobic interaction chromatography (HIC; Phenylsepharose), anion exchange chromatography (AEX; Macro Q) and size exclusion chromatography (SEC; Superose 6 or Sephadex 200). All columns were purchased from GE Healthcare. The hydrophobic interaction column was equilibrated with Tris (pH 8)/1 M ammonium sulfate and bound protein was then eluted with Tris (pH 8) over 400 mL. Protein was bound to the anion exchange column with Tris (pH 8) and eluted with a gradient of Tris (pH 8)/1 M NaCl over 500 mL. The buffer was exchanged to 25 mM HEPES/50 mM KCl (pH 8) during SEC and the protein was stable in this buffer at 4° C. for several weeks. The oligomeric structure was estimated with a Superose 6 size exclusion column calibrated with the following protein standards (kDa): thyroglobulin (669), ferritin (440), catalase (232) and aldolase (158). Standard tryptic peptide mass fingerprinting was used to confirm the identity of proteins excised from polyacrylamide gels by liquid chromatography electro spray ionisation mass spectroscopy/mass spectroscopy (LC ESI MS/MS) ion trap following the method of Campbell et al. (2008).

Series [4] is described as follows: Activity of PuhA and PuhB expressed in M. smegmatis at each purification step (PNP release). It is filed as biochemical. The method, then: (§2) Pwo polymerase (Roche) and restriction enzymes NdeI, BamHI and HindIII (Fermentas) were used following manufacturers' protocols. Electro-competent E. coli strains JM109 (Promega) were utilised for transformation of ligation reactions (using Promega ligase). Protein expressions in E. coli were inoculated (1% v/v) with an overnight seed culture in LB and then incubated with shaking at 20° C. for 11 hours followed by induction with 0.1 mM isopropyl-β-D-thiogalactopyranoside (IPTG) for 3 hours. M. smegmatis expressions were amended with 0.05% tween 80 and grown in LB at 28° C. for 2-4 days with no induction. Clarified cell-free extracts were obtained by resuspending the bacteria in 25 mM Tris (pH 8) followed by 3 passes through a French pressure cell (Thermo) and centrifugation at 27,000 g (Beckman Avanti).
as §1

Series [5] in a line: Diuron hydrolase activity in the soluble fraction of recombinant expression hosts. It is filed as biochemical.
Source text: PuhA and PuhB were amplified as N-hexa-histidine tagged fusions from pET14b (Novagen) in E. coli rosetta II cells (Novagen) and pMV261 (Stover et al., 1991) in M. smegmatis mc2. Protein without hexa-histidine tags was later expressed in M. smegmatis mc2. The PCR primers used in these cloning procedures are noted in Table 2 (SEQ ID NOs 5 to 13).
as §2

A short description of series [6]: Thermal stability: residual activity after 10 minutes pre-incubation, Boltzmann fit. Format: biochemical. Conditions: for residual activity after incubation (in words): 10 minutes incubation at 40° C.; for Tm indicating 50% activity retained: 10 minutes pre-incubation, then 1 hour assay at 25° C. As to the method: (§3) The influence of solvents (acetonitrile and methanol) was examined by using 7 concentrations from 0.4-18.2% over 1 hour duplicate assays with 77 μM diuron and monitored by LCMS. The effect of temperature on the activity of the enzymes was determined in two ways: firstly, the temperature at which reaction was catalysed was controlled at 12 temperatures ranging from 2-60° C. with 154 μM diuron; secondly, enzyme was preincubated at 6 temperatures from 30-55° C. for 10 minutes prior to 1 hour assays at 25° C. The residual activity data was obtained by LCMS and fitted to the Boltzmann function (eq 1)
(§4) A bell shaped model (eq 2)

Series [7] in a line: Stability in the presence of the solvents acetonitrile and methanol. It is filed as biochemical. Conditions: 1-18% v/v solvent. The method, then: as §3
Series [8] is described as follows: pH dependence of kcat, kcat/Km and Km with diuron in constant ionic strength buffer. It is filed as biochemical. The note with it: for pKe1 / pKes1: acidic shoulder; for pKe2 / pKes2: basic shoulder; for pKe of the decrease in catalytic efficiency: basic side.
Source text: as §4
(§5) was used to fit an activity y, either log(kcat) and log(kcat/Km) vs. pH. (y)^max is the plateau value and pKa^1 and pKa^2 are the apparent pKa values for the acidic and basic groups, respectively. Equations were fitted to the data using Kaleidagraph v3.6 (Synergy Software). The substrate pKa values were obtained via an online database www.syrres.com/esc/physdemo.htm (Syracuse Research Corporation).

Series [9] is described as follows: Bronsted plots (pKa of leaving group vs log kcat) for N-dimethyl phenylureas. Format: biochemical. The note with it: slope between pKa 4-5.
Source text: as §5

The mark [10] stands for this setting: expressed in E. coli Rosetta 2 DE3 from pET14b.
The mark [11] stands for this setting: expressed in M. smegmatis from pMV261.

Broadly, the kcat is the maximal rate divided by the concentration of active sites.

`CN(C)C(=O)Nc1ccc(Cl)c(Cl)c1` [diuron, N′-3,4-dichlorophenyl N-dimethylurea]: in series [1], the “degradation of diuron (loss of diuron, accumulation of DCA)” value is reported as “degradation of diuron was confirmed”. The knon in [2] is 2.8e-10 s⁻¹. Further, on PuhB, the kcat was determined as 0.48 s⁻¹. Besides, on PuhB (diuron), the rate enhancement kcat/knon was 1.7×10^9.

B1: PuhA: phenylurea hydrolase from A. globiformis D47, amino acid sequence SEQ ID NO:3 (protein)
chain: MTTTAITDITLIDGRGGAPERGVTVLVDEDRFSAIGPTATTPIPDGARVVGGAGRWMVPGYVNGNVHLLDAWMFMVGPGTIEYLARWEGRYVEVIEEAAQLVLRNGVTTVFDTYNAIEPVLAARDRINAGTSAGARIFAAGTIVGLGGPFSADFHFIGQQAASRTFVNRIDAMFEAGVGHQLSLLPRNEVRSRVRDYLARGVDMLKIAVSDHIVFTVGFDRSCQTFSRPVLEVMFEEARAAGVPVLTHSVSVEALDTSVDLGADVLIHANYTLGQHIPDYLIDKIAASDSYAGLQTVHHEHREGLERVGSWAATLAGEPYASNERALIRAKAKILMNTDAGCPSKDHLADLSPAEREDRPWTIGGDHFHWTQSIVEKGMTPLEAISAATLNVARAYGKDADIGSVETGKLADFVLLDADPTADIRHLRSISAVYQAGVAVDRGALPTTPLVTAHPA
modifications: Arthrobacter globiformis D47
On to B1, for which the “Activity (nmol DCA/μg/hour)” value in series [3] (AS (ammonium sulfate)) was found to be 0.18 nmol DCA/μg/hour; in series [3] (CFE (cell free extract)) it was 0.05 nmol DCA/μg/hour; in series [3] (HIC) it was 0.73 nmol DCA/μg/hour; in series [3] (SEC), 2.79 nmol DCA/μg/hour. Further, the “Estimated specific activity (mol/mol/min)” value in series [3] (HIC) is 10.20 mol/mol/min; in series [3] (SEC), 7.02 mol/mol/min. Besides, the “Activity (mM PNP/mg/min)” value in series [4] (AEX) was found to be 6.2 mM PNP/mg/min; in series [4] (CFE), 0.3 mM PNP/mg/min; in series [4] (HIC), 4.3 mM PNP/mg/min; in [4] (SEC) it was 7.8 mM PNP/mg/min. The “specific activity in the soluble fraction, fold lower compared to the native expression” value in series [5] (setting [10]) is listed as around 10 fold. The “activity in the soluble fraction (in words)” value in series [5] (setting [11]) is “comparable to that measured in the native expressions”. The “residual activity after incubation (in words)” value in series [6] is reported as “retaining significant activity”. Further, the “Tm indicating 50% activity retained” value in [6] turned out to be 46.6 °C. Further, the “activity in the presence of methanol and acetonitrile (in words)” value in series [7] is recorded as “significantly inhibited”. The pKe1 in series [8] worked out at 4.2. Moreover, the pKes1 in [8] amounted to 5.1. For the same molecule, in [8], the pKe2 turned out to be 8.9. Besides, the pKes2 in series [8] came out at 10.2. Also, the “pKe of the decrease in catalytic efficiency” value in series [8] was around 10. Also, the βlg in series [9] is listed as −1.6.

B2: PuhB: phenylurea hydrolase from Mycobacterium brisbanense JK1, amino acid sequence SEQ ID NO:1 (protein)
chain: MSTIAITNVTLIDGLGGLPRPATTVIVEGDRFATVGPSDSTPVPEGATVVDGNRRWMVPGYVNGNVHLLDAWMFMAGPGTIEYLARWEGRYVEVIEEAAQLALRNGVTTVFDTHNAIEPVLAARDRINAGISQGARIFAAGTIVGMGGPFSADFHFAGRTAATRTFVDRIDSMFEAGVGHQLSLLPRKEVRARVRDYLSRGVDMLKIAVSDHIVFTLVDRSVGFDRSYQTFSRPVLEVMVEEARAAGVPVLTHSVSVEALDTSVELGADVLIHANYTLGQEIPNYLIDKIVASDSWAGLQTVHDQHRQGLEDVGSWAAALAGEPYATNERNLISANAKILLNTDAGCPSKDHLADLSPVEREDRPWTIGNDHFHWTQSMVEKGMSPLEAISAATINVARAYGKADQIGSVETGKLADFVLLDQDPVDDIRNLRSITEVFQAGAAVDRAALPTTPLVTAHPA
modifications: Mycobacterium brisbanense JK1
For B2, the “Activity (nmol DCA/μg/hour)” value in series [3] (AS (ammonium sulfate)) is listed as 0.24 nmol DCA/μg/hour; in series [3] (CFE (cell free extract)), 0.05 nmol DCA/μg/hour; in series [3] (HIC), 0.24 nmol DCA/μg/hour; in [3] (SEC), 0.04 nmol DCA/μg/hour. In addition, the “Activity (mM PNP/mg/min)” value in [4] (AEX) turned out to be 3.9 mM PNP/mg/min; in [4] (CFE), 0.1 mM PNP/mg/min; in [4] (HIC), 1.4 mM PNP/mg/min; in series [4] (SEC), 4.3 mM PNP/mg/min. Further, the “activity in the soluble fraction (in words)” value in [5] (setting [10]) is recorded as “no activity was detected”; in [5] (setting [11]), “displayed diuron hydrolase activity”. The “residual activity after incubation (in words)” value in series [6] was “retaining significant activity”. Besides, in series [6], the “Tm indicating 50% activity retained” value turned out to be 46.0 °C. In addition, the “activity in the presence of methanol and acetonitrile (in words)” value in [7] is “significantly inhibited”. For the same molecule, in series [8], the pKe1 amounted to 5.0. For the same molecule, the pKes1 in series [8] turned out to be 5.0. Also, the pKe2 in series [8] came out at 9.6. The pKes2 in series [8] was determined as 10.6. The “pKe of the decrease in catalytic efficiency” value in [8] is given as around 10. The βlg in series [9] is recorded as −1.1.
